Values of other authors in patent US7662384B2, “Use of anti-α5β1 antibodies to inhibit cancer cell proliferation” (Facet Biotech Corporation, priority 2004, dated 2010).
Where two headings read alike, the source gives them in different places.

How the values were obtained:
angiogenesis [1] = conditions: rabbit eye model; cited from earlier work
angiogenesis [2] = conditions: monkey eye model; cited from earlier work

B1: F200: Fab fragment derived from M200 (antibody, chains of the INN, looked up, V domains shown)
VH: QVQLKESGPGLVAPSQSLSITCTISGFSLTDYGVHWVRQPPGKGLEWLVVIWSDGSSTYNSALKSRMTIRKDNSKSQVFLIMNSLQTDDSAMYYCARHGTYYGMTTTGDALDYWGQGTSVTVSS
VL: QIVLTQSPAIMSASLGERVTMTCTASSSVSSNYLHWYQQKPGSAPNLWIYSTSNLASGVPARFSGSGSGTSYSLTISSMEAEDAATYYCHQYLRSPPTFGGGTKLEIK
modifications: Fab
notes: Fab fragment derived from M200
Question: Which “in vivo anti-angiogenic efficacy” value (angiogenesis [1]) does the source give for B1 here?
Answer: in vivo anti-angiogenic efficacy

Question: What about the “in vivo anti-angiogenic efficacy” value (angiogenesis [2]) of the same molecule?
Answer: in vivo anti-angiogenic efficacy
